One assay has as its target dog plasma proteins. Briefly: plasma protein binding, ultracentrifugation of spiked plasma, LC-MS/MS.
Assay [1] addresses human plasma proteins. The assay is described as above.
Assay [2] deals with human plasma proteins. Briefly: plasma protein binding; spiked human plasma, ultracentrifugation, LC-MS/MS.

Starred links: 1 amine or outer side, 2 acyl side, 3 side chain; linkers in the order of their positions; H or OH if unused. Non-standard residues stand in square brackets, D forms with d. Groups on a side chain read outwards from the residue. No end group written: not given here. *: point of attachment. C16 diacid = O=C(O)CCCCCCCCCCCCCCC(=O)*; C15 diacid = O=C(O)CCCCCCCCCCCCCC(=O)*; γGlu = O=C(O)[C@H](CCC(=O)[*:2])N[*:1]; NMeY = CN[C@@H](Cc1ccc(O)cc1)C(=O)O; AEEA = NCCOCCOCC(=O)O; Aib = CC(C)(N)C(=O)O

B1: Compound 21 (peptide)
peptide: [NMeY][Aib]EGTFISDYSI[Aib]LDR[Aib]AQ[Aib]NFVNWLLAQK([AEEA-AEEA-γGlu-γGlu-C15 diacid])PSSGAPPPS-NH2
modifications: N-terminus assumed
SMILES: CC[C@H](C)[C@H](NC(=O)[C@H](Cc1ccccc1)NC(=O)[C@@H](NC(=O)CNC(=O)[C@H](CCC(=O)O)NC(=O)C(C)(C)NC(=O)[C@H](Cc1ccc(O)cc1)NC)[C@@H](C)O)C(=O)N[C@@H](CO)C(=O)N[C@@H](CC(=O)O)C(=O)N[C@@H](Cc1ccc(O)cc1)C(=O)N[C@@H](CO)C(=O)N[C@H](C(=O)NC(C)(C)C(=O)N[C@@H](CC(C)C)C(=O)N[C@@H](CC(=O)O)C(=O)N[C@@H](CCCNC(=N)N)C(=O)NC(C)(C)C(=O)N[C@@H](C)C(=O)N[C@@H](CCC(N)=O)C(=O)NC(C)(C)C(=O)N[C@@H](CC(N)=O)C(=O)N[C@@H](Cc1ccccc1)C(=O)N[C@H](C(=O)N[C@@H](CC(N)=O)C(=O)N[C@@H](Cc1c[nH]c2ccccc12)C(=O)N[C@@H](CC(C)C)C(=O)N[C@@H](CC(C)C)C(=O)N[C@@H](C)C(=O)N[C@@H](CCC(N)=O)C(=O)N[C@@H](CCCCNC(=O)COCCOCCNC(=O)COCCOCCNC(=O)CC[C@H](NC(=O)CC[C@H](NC(=O)CCCCCCCCCCCCCC(=O)O)C(=O)O)C(=O)O)C(=O)N1CCC[C@H]1C(=O)N[C@@H](CO)C(=O)N[C@@H](CO)C(=O)NCC(=O)N[C@@H](C)C(=O)N1CCC[C@H]1C(=O)N1CCC[C@H]1C(=O)N1CCC[C@H]1C(=O)N[C@@H](CO)C(N)=O)C(C)C)[C@@H](C)CC
Molecule B1 showed a Dog PPB (Fu,plasma), fraction unbound (fraction unbound) with dog plasma proteins of 0.037. Also, the Human PPB (Fu,plasma), fraction unbound (fraction unbound) with human plasma proteins [1] worked out at 0.0414.

B2: Compound 23 (peptide)
peptide: [NMeY][Aib]EGTFISDYSIAK([AEEA-γGlu-γGlu-γGlu-C15 diacid])DR[Aib]AQ[Aib]NFVNWLLAQK-NH2
modifications: N-terminus assumed
SMILES: CC[C@H](C)[C@H](NC(=O)[C@H](CO)NC(=O)[C@H](Cc1ccc(O)cc1)NC(=O)[C@H](CC(=O)O)NC(=O)[C@H](CO)NC(=O)[C@@H](NC(=O)[C@H](Cc1ccccc1)NC(=O)[C@@H](NC(=O)CNC(=O)[C@H](CCC(=O)O)NC(=O)C(C)(C)NC(=O)[C@H](Cc1ccc(O)cc1)NC)[C@@H](C)O)[C@@H](C)CC)C(=O)N[C@@H](C)C(=O)N[C@@H](CCCCNC(=O)COCCOCCNC(=O)CC[C@H](NC(=O)CC[C@H](NC(=O)CC[C@H](NC(=O)CCCCCCCCCCCCCC(=O)O)C(=O)O)C(=O)O)C(=O)O)C(=O)N[C@@H](CC(=O)O)C(=O)N[C@@H](CCCNC(=N)N)C(=O)NC(C)(C)C(=O)N[C@@H](C)C(=O)N[C@@H](CCC(N)=O)C(=O)NC(C)(C)C(=O)N[C@@H](CC(N)=O)C(=O)N[C@@H](Cc1ccccc1)C(=O)N[C@H](C(=O)N[C@@H](CC(N)=O)C(=O)N[C@@H](Cc1c[nH]c2ccccc12)C(=O)N[C@@H](CC(C)C)C(=O)N[C@@H](CC(C)C)C(=O)N[C@@H](C)C(=O)N[C@@H](CCC(N)=O)C(=O)N[C@@H](CCCCN)C(N)=O)C(C)C
Take B2: in the assay with human plasma proteins [2], the percent of unbound drug in plasma was found to be 7.3% and the proportion of the drug being bound was 92.7%. The Human PPB (Fu,plasma), fraction unbound (fraction unbound) in the assay with human plasma proteins [1] stood at 0.0734.
The molecule [NMeY][Aib]EGTFISDYSIAK([AEEA-AEEA-γGlu-γGlu-C15 diacid])DR[Aib]AQ[Aib]NFVNWLLAQS [Compound 16] displayed a Dog PPB (Fu,plasma), fraction unbound (fraction unbound) with dog plasma proteins of 0.0151. For the same molecule, the Human PPB (Fu,plasma), fraction unbound (fraction unbound) in the assay with human plasma proteins [1] was 0.0441.
[NMeY][Aib]EGTFISDYSI[Aib]LDRK([AEEA-AEEA-γGlu-γGlu-C15 diacid])AQ[Aib]NFVNWLLAQRPSSGAPPPS-NH2 (not fully specified (N-terminus)) [Compound 20]: in the assay with human plasma proteins [2], the percent of unbound drug in plasma worked out at 0.1%. Moreover, the Dog PPB (Fu,plasma), fraction unbound (fraction unbound) in the assay with dog plasma proteins was 0.0021. Also, the Human PPB (Fu,plasma), fraction unbound (fraction unbound) in the assay with human plasma proteins [1] was found to be 0.0013.
Turning to [NMeY][Aib]EGTFISDYSIALDR[Aib]K([AEEA-AEEA-γGlu-γGlu-C16 diacid])Q[Aib]NFVNWLLAQSPSSGAPPPS-NH2 [Compound 119], in the assay with dog plasma proteins, the Dog PPB (Fu,plasma), fraction unbound (fraction unbound) stood at 0.0105. The Human PPB (Fu,plasma), fraction unbound (fraction unbound) with human plasma proteins [1] stood at 0.0185.
